For one sequence, Kd results are on record in article PMC5527020.

The test system of series [1] is HCV NS3. Description: magnetic-bead pull-down with q-PCR. The following applies: BD buffer: 50 mM NaH2PO4 pH 8.0, 150 mM NaCl, 5 mM KCl, 2 mM MgCl2, 0.05% Tween-20; room temperature, 30 min; aptamer heated to 95 C and cooled at 4 C.
Series [2] relates to Hepatitis B surface antigen (HBs Ag). Description: magnetic-bead pull-down with q-PCR. The following applies: BD buffer: 50 mM NaH2PO4 pH 8.0, 150 mM NaCl, 5 mM KCl, 2 mM MgCl2, 0.05% Tween-20; room temperature, 30 min; aptamer heated to 95 C and cooled at 4 C.

Consider “AGCAGCACAGAGGTCCTGCATCACGAAGCCTGGCAGCGTGCTACCGTGAA [MP-1]”, for which the equilibrium dissociation constant (Kd) in series [1] turned out to be 23.3 nM; in series [2], 28.3 nM.
